Data on two proteins can be found in PMC13214397, “De novo biosynthesis of alpinetin enhanced by directed evolution of 5-O-methyltransferase” (Microbial Cell Factories, 2026).

Substrate in data set [1]: O=C1C[C@@H](c2ccccc2)Oc2cc(O)cc(O)c21
As to the kind of experiment: initial rates of alpinetin formation by HPLC, Michaelis-Menten fit. The data set is classed as biochemical, Streptomyces avermitilis. The conditions noted are these: 2 mM SAM (fixed), 2 mM Mg2+, 50 uM enzyme, Tris-HCl pH 7.5, 37 °C, apparent initial velocities. The source says: initial rates of alpinetin formation by HPLC, Michaelis-Menten fit on StrAOMT | we performed steady-state kinetic assays for StrAOMT wild-type and StrAOMT I41L/R171W/K212R

Substrate in data set [2]: O=C1C[C@@H](c2ccccc2)Oc2cc(O)cc(O)c21
The data set is described as above. The data set is classed as biochemical, Streptomyces avermitilis. The conditions noted are these: 2 mM SAM (fixed), 2 mM Mg2+, 50 uM enzyme, Tris-HCl pH 7.5, 37 °C, apparent initial velocities. From the text:
initial rates of alpinetin formation by HPLC, Michaelis-Menten fit on StrAOMT | KM of StrAOMT wild type is twice that of the StrAOMT triple mutant
The source holds these as a separate data set.

B1: StrAOMT (Streptomyces avermitilis MA-4680 = NBRC 14893) (protein)
chain: MSESQQLWDDVDDYFTTLLAPEDEALTAALRDSDAAGLPHINVAPNQGKLLQLLAEIQGARRILEIGTLGGYSTIWLGRALPRDGRLISFEYDAKHAEVARRNLARAGLDGISEVRVGPALESLPKLADERPEPFDLVFIDADKVNNPHYVEWALKLTRPGSLIVVDNVVRGGGVTDAGSTDPSVRGTRSALELIAEHPKLSGTAVQTVGSKGYDGFALARVLP
notes: recombinant from pET21b in E. coli BL21(DE3), codon-optimized
Turning to B1, in data set [1], the Michaelis constant (Km) stood at 313.2 µM and the kcat amounted to 2.83e-05 s⁻¹.

B2: StrAOMT (Streptomyces avermitilis MA-4680 = NBRC 14893; I41L/K212R/R171W) (protein)
chain: MSESQQLWDDVDDYFTTLLAPEDEALTAALRDSDAAGLPHLNVAPNQGKLLQLLAEIQGARRILEIGTLGGYSTIWLGRALPRDGRLISFEYDAKHAEVARRNLARAGLDGISEVRVGPALESLPKLADERPEPFDLVFIDADKVNNPHYVEWALKLTRPGSLIVVDNVVWGGGVTDAGSTDPSVRGTRSALELIAEHPKLSGTAVQTVGSRGYDGFALARVLP
notes: as for B1
For the protein B2, in data set [2], the Michaelis-Menten constant (Km) stood at 156.4 µM and the kcat worked out at 9.33e-05 s⁻¹.
